Test results taken from patent US20230203156A1 (WILLIAM ROBERT ARATHOON LIVING TRUST DATED AUGUST 29 2016, published 2023).
Where a chain is given by its changes, count along the chain named.

B1: B1.178 (antibody, human IgG1, V domains shown)
VH: EAQLVESGGALVKPGGSLKLSCSASGFTFSNYAMSWVRQTPEKRLEWVATISSGGTNTYYPGSVKGRFTIARDNAKNTLYLLMSSLRSEDTALYFCARYSNLAWFASWGQGTLVTVSA
VL: DVVMTQTPLSLPVSLGDQASISCRSSQSIVHSNGNTYLEWYLQKPGQSPKFLISKVSNRFSGVPDRFSGSGSGTDFTLKISRVEAEDLGIYYCFQGSHVPYTFGGGTKLEIK
B2: B1.226 (antibody, human IgG1, V domains shown)
VH: B1 VH with A2V, S23A, K43T, T56S, N57Y, G62D, A71S, L82Q, F95Y, S107Y
VL: B1 VL with E39D, L52M, S54Y, I90V
B3: B1.201 (antibody, human IgG1, V domains shown)
VH: EVQLVESGGALMKPGGSLKFSCAASGFTFTNYAMSWVRQTPEKRLEWVATISSGGSNTYYSDSVKGRFTISRDNAKTTLYLQMSGLRSEDTALYYCAKFSNFGRFASWGQGTLVTVSA
VL: B1 VL with V3L, S25F, N33S, K50R, F51L, S54Y, S61F, F67I, K79R, I90V
B4: B1.207 (antibody, human IgG1, V domains shown)
VH: B3 VH with E1G, M12V, F20L, T30S, N57Y, S61P, F99Y, F102Y, A118T
VL: B1 VL with V3L, N33S, K50R, F51L, S54Y, S61F, F67I, K79R, I90V
B5: B1.278 (antibody, human IgG1, V domains shown)
VH: QVQLQQSGPELVKPGASVKISCKASGYSFTGYFMNWVMQSHGKSLEWIGRINPYNGDTFYNQKFKGKATLTVDKSSGTAHMELRSLASEDSAVYYCARCYYYGSSSYGMDYWGQGTSVTVSS
VL: QIVLTQSPASLAVSLGQRATISCRASESVHNYGVSFMNWFQQRPGQPPKLLIHAASHQGSGVPARFTGSGSGTDFSLNIHPMEEDDIAMYFCQQSKEVPLTFGAGTKLKLK
B6: KPA08 (antibody, V domains shown)
VH: EVKVVESGGVLVRPGGSLKLSCAASGFTFSRYTMSWVRQTPEKRLEWVATISSGGGNTYYPDSVKGRFTVSRDNAMSSLYLQMSSLRSEDTALYYCARYGAGDAWFAYWGQGTLVTVSS
VL: DVLMTQTPVSLSVSLGDQASISCRSSQSIVHSTGNTYLEWYLQKPGQSPKLLIYKISNRFSGVPDRFSGSGSGTDFTLKISRVEAEDLGVYYCFQASHFPRTFGGGTKLEIK
B7: B1.89 (antibody, human IgG1, V domains shown)
VH: KVQLVESGGALVKPGGSLKLSCAASGFTFSNYAMSWVRQTPEKRLEWVATISSSGSYTYFPDSVKGRFTISRDNAKNTLYLQMSSLRSEDTALYYCARYGYDEAWFASWGQGTLVTVSA
VL: B6 VL with V9L, S12P, S28T, T33N, I56V, N58K, A96G
B8: B1.27 (antibody, human IgG1, V domains shown)
VH: EVKLVESGGGLVKPGGSLKLSCAASGFTFSSYTMSWVRQTPEKRLEWVATVSSGGGNTYYPDSVKGRFTISRDNAKNNLYLQMSSPRSEDTALYYCARYGNYGWFTYWGQGTLVTVSS
VL: B6 VL with L3V, V9L, S12P, S28N, E39D, I56V, Y92F, A96G, F99I
B9: B1.263 (antibody, human IgG1, V domains shown)
VH: EVKLVESGGGLVKPGGSLKLSCAASGFTFSNYGMSWVRQTPEKRLEWVAAISSNGAYTYFPDTVKGRFTISRDNAKNTLYLQMNSLRSEDTALYYCTRRGWDTWFAYWGQGTLVTVSS
VL: B1 VL with S28N, N33T, F51L, S54Y, I90V, Y101W
B10: KB1.269A (antibody, human IgG1, V domains shown)
VH: B7 VH with K1E, L11S, S54G, F60Y, P61L, G100Y, Y101V, D102Y, E103D, S108Y
VL: B1 VL with N33T, F51L, S54Y, I90V, Y91F, Y101R
B11: B1.264 (antibody, human IgG1, V domains shown)
VH: B8 VH with G10A, S31N, T33A, V51I, G56S, K65M, N78T, P86L, G100S, T106A
VL: B1 VL with F51L, S54Y, I90V, H98L, Y101R
B12: B1.198 (antibody, human IgG1, V domains shown)
VH: B3 VH with M12V, F20L, T30S, N57Y, S61P, T77N, G85S, F99Y, F102Y, S107Y
VL: B1 VL with H31D, F51L, S54Y, S61F, I90V
B13: B1.188 (antibody, human IgG1, V domains shown)
VH: EVMLVESGGALVKPGGSLKLSCAASGFTFSNYAMSWVRQTPEKRLEWVATISSGGSYTYYPDSVKGRFTISRDNARNTLYLQMSSLRSEDTAMYYCARGYGNFAWFAYWGQGTLVTVSA
VL: B1 VL with V2I, V3Q, T7S, N33T, F51L, S54Y, I90V, Y101F, G105S
B14: B1.217 (antibody, human IgG1, V domains shown)
VH: EVQLVESGGALVKPGGSLKLSCAASGFTFSNYAMSWVRQTPEKRLEWVATISSGGSYTYYPDSVKGRFTISRDNAKNTLYLQMSSLRSEDTALYYCTKYSNYGRFAYWGQGTLVTVST
VL: B6 VL with V9L, S12P, I56V, A96G, F99I, R101Y
B15: B1.225 (antibody, human IgG1, V domains shown)
VH: EVQLVESGGALVKPGGSLKLSCAASGFTFSNYGMSWVRQTPEKRLEWVATISSGGSYTYYPDTVKGRFTISRDNAKNTLHLQMSSLRSEDTALYYCARRGTNDAWFGYWGQGTLVTVSA
VL: DVVMTQTPLSLPVSLGDQASISCRFSQSIVHSNGNTYLEWYLQKPGQSPKLLIYKVSNRFFGVPDRFSGSGSGTDFTLKISRVEAEDLGVYFCFQGSHVPQYTFGGGTKLEIK
B16: KB1.273A (antibody, human IgG1, V domains shown)
VH: QVQLQQSGPELVKTGASVKISCKASGYSFSNYYIHWVKQSHGKSLEWIGFISCYNGATFYNQKFKGKATFTVDTSSSTAYMKFNSLTFEDSAVYYCARLPIQFGNFYPMDYWGQGTSVTVSS
VL: QIVLTQSPAIMSASLGERVTMTCTASSSVSSSYLHWYQQKPGSSPKLWIYSTSNLASGVPARFSGSGSGTSYSLTISSMEAEDAATYYCHQYHRSPPTFGAGTKLELK
B17: B1.219 (antibody, human IgG1, V domains shown)
VH: B14 VH with G54V, N77T, S85G, T97A, Y107S
VL: DVLMTQTPLSLPASLGDQASISCRSSQSIVHSSGNTYLEWYLQKPGQSPRLLIYKVSNRFFGVPDRISGSGSGTDFTLRISRVEAEDLGVYYCFQGSHVPYTFGGGTKLEIE
B18: B1.223 (antibody, human IgG1, V domains shown)
VH: B14 VH with Q3K, N77T, S85G, T97A, Y99F, Y107S, T118S
VL: B17 VL with V2I, L3Q, T5I, T7S, A13V, I111L, E112K
B19: B1.276 (antibody, human IgG1, V domains shown)
VH: EVKLVESGGALVKPGGSLKLSCAASGFTFRNYAMSWVRQTPEKRLEWVATISSDGSYTYHPDSVKGRFTISRDNARNTLYLQMSSLRSEDTAMYSCTRQGNWGRTWFTYWGQGTLVTVSS
VL: QIVLTQSPAIMSASPGEKVTMTCRASSSVSSSYLHWYQQKSGASPKLWIYSTSSLASGVPARFSGSGSGTSYSLTISSVEAEDAATYYCQQYSGYPLTFGAGTKLELK

Target: human MDR1 (multidrug resistance protein 1) (human, UniProt P08183 1-1280)
Assay: cell-based or functional assay

IC50 of vincristine on N6/ADR cells with antibody [nM]	Binder
0.0528	B1
0.0138	B2
0.0216	B3
0.0095	B4
0.029	B5
2.93	B6
0.0622	B7
2.83	B8
0.0062	B9
0.0323	B10
0.0192	B11
0.0167	B12
0.0929	B13
0.0386	B14
0.0035	B15
0.0299	B16
0.0103	B17
0.0068	B18
0.029	B19
